Experimental data published in PMC3074124.

Target: T1, His6-MBNL1 (human, UniProt Q9NR56-5 1-382)
T1 sequence: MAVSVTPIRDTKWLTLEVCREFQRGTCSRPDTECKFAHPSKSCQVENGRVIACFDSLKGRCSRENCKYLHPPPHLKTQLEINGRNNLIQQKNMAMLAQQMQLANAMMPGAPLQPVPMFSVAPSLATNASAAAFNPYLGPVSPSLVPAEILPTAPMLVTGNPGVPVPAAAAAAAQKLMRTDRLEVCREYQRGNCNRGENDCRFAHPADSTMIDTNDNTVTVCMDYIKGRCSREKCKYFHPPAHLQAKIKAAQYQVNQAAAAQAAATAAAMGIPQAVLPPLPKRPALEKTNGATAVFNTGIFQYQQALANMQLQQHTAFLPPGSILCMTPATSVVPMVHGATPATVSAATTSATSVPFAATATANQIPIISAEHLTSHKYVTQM
Assay: EMSA

B1: DOWN (ssRNA)
RNA: GUAUGACUCACCUGUGCGACCCCUGGUGCCUGCUCCGCGCAGGGCCGGCGGCGUGCCAGGCAGAUGCCUCGGAGAACCCAGGGGUUUCUGUGGCUUUUUGCAUGCGGCGGGCAGCUGUGCUGGAGAGCAGAUGCUUCACCAAUUCAGAAAUCCAAUGCCUUCACUCUGAAAUGAAAUCUGGGCAU
  binding result: binds
